Laboratory results from patent US20170002075A1 (AbbVie / Abbott, published 2017).
One block for each binder: values may come before it.

Legend:
[1] = target: T1, E. coli RAGE Construct #6, 6His-(Thr)-[RAGE (130-336)] (human, UniProt Q15109 130-336); assay: ELISA: RAGE 130-336 (E. coli, D#1478) coated, mAb titrated, anti-mouse HRP conjugate, TMB
T1 construct: Expressed in E. coli with an N-terminal 6His-(Thr) tag, which is part of the entry; also called RAGE protein #6
Experimental: (§1) Antigens (purified construct #1-7 proteins) were diluted into Coating Buffer [100 mM NaHCO₃, pH 8.2] to 1 μg/ml, and 100 μl of the resulting solution was then aliquoted into a 96-well Nunc Immuno Plate (Maxi-Sorb Surface, flat bottom, catalog #439454). The plate was sealed with sealing film and incubated at 4° C. overnight. The next day, the plate wells were each washed 3 times with 150 μL PBST buffer [Sigma PBS+0.05% Tween 20]. Then 300 ul of blocking solution (3% NFDM in PBST) was added to each well. The plate was incubated for 2 hours at room temperature and shaking at 100 rpm. After the incubation step, each well was again washed three times with 150 uL PBST. […] The plate was then sealed with sealing film and incubated for 2 hours at room temperature and shaking at 100 rpm. Next the antibody solution was drained out of the wells, and each well then washed three times with 200 ul PBST. To each well then 200 ul of a 1:5000 dilution (in PBST/1% NFDM) of conjugated secondary antibody [Donkey anti-mouse HRPO conjugate, Jackson Immuno Research, Catalog #715-035-150] was added. The plate was covered and allowed to incubate for 1 hour at room temperature while shaking at 100 rpm. Following this incubation, the solution was removed from the wells and each well was washed three times with 200 ul PBST. To each well 100 μL of HRPO substrate [3,3′,5′,5′-Tetramethylbenzidine Liquid Substrate (TMB), Supersensitive for ELISA, Sigma Catalog #T4444] solution was added and the plate incubated at room temperature for 10 minutes. Finally, 50 μL of 2M H₂SO₄ was added to each well to stop the reaction and the A₅₄₀ₙₘ of each well was measured using a microtiter plate reader.

[2] = target: T2, E. coli RAGE Construct #7, 6His-(Thr)-[RAGE (235-336)] (human); assay: ELISA: RAGE 235-336 (E. coli, D#1479) coated, mAb titrated, anti-mouse HRP conjugate, TMB
T2 construct: Expressed in E. coli with an N-terminal 6His-(Thr) tag, which is part of the entry; also called RAGE protein #7
T2 chain: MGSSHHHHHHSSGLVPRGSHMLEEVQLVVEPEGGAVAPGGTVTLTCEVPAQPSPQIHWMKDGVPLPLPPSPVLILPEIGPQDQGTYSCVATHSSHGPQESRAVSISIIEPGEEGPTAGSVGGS
Experimental: as §1

[3] = target: mouse RAGE (Mu-RAGE) (mouse, UniProt Q62151 23-340, limits assumed); assay: Biacore SPR (Table 7, column Mouse-RAGE); paragraph 283: 'Table 7 shows that 4E5 did not bind to mouse RAGE (Mu-RAGE)'
Chain of mouse RAGE (Mu-RAGE) (Q62151 23-340 limits assumed): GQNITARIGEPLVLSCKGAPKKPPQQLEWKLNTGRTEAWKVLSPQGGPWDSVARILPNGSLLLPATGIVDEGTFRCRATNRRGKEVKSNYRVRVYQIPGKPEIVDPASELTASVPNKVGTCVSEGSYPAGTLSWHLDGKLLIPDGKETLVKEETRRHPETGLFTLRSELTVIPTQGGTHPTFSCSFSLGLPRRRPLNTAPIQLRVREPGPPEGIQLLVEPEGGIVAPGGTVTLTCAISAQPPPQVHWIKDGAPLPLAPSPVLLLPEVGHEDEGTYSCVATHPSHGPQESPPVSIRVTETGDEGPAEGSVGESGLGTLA

[4] = target: T3, hRAGE (1-331) / human sRAGE 1-331, V#400 (human, UniProt Q15109 23-331); assay: Biacore 2000 SPR, mAb captured via anti-mouse Fc, RAGE injected 20-0.31 nM, HBS-EP+ buffer, 1:1 fit
T3 construct: also called sRAGE [RAGE (1-331)]; RAGE (antigen of the Biacore runs)
T3 sequence (Q15109 23-331): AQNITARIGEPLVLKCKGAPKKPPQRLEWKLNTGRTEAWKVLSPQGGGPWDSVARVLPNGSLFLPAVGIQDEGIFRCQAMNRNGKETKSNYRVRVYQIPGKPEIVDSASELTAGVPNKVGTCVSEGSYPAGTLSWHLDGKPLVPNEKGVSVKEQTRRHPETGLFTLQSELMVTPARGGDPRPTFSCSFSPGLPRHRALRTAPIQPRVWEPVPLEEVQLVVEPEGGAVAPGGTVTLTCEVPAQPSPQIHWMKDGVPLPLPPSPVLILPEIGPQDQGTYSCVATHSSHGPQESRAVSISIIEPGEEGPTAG
Experimental: The assay format for mAb affinity analysis was Fc-based capture via immobilized anti-Fc antibodies. A standard amine coupling protocol was employed to immobilize Fc-specific IgG via primary amines to the carboxy-methyl (CM) dextran surface of CM5 sensorchips (Biacore). […] Briefly, the CM-dextran surfaces were activated by freshly prepared 1:1 50 mM N-hydroxysuccinimide (NHS):200 mM 3-(N,N-dimethylamino) propyl-N-ethylcarbodiimide (EDC). Then the anti-Fc IgG capture reagent (20 ug/ml in 10 mM sodium acetate, pH4.5) was applied to the surface followed by deactivation of the surface and blocking of the residual reactive sites with 1M ethanolamine (pH 8.5).
Each experimental cycle consisted of the following steps: 1) anti-RAGE mAbs were captured in flowcells 2, 3 or 4 to a level of 50-200 RU (depending on the antigen). All measurements were referenced against flowcell 1 which had no captured anti-RAGE mAb. […] 3) the anti-Fc capture surface was regenerated with low pH glycine.
Briefly, the data were double referenced by first, subtracting the signal from the reference cell and second, by subtracting the signal from buffer-only injections.

[5] = target: T4, RAGE-derived peptide 5 (human); assay: dot blot, non-denatured peptide on nitrocellulose
T4 construct: Synthetic peptide with a free carboxyl terminus
T4 peptide: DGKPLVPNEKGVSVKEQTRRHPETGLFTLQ
Description: (§2) Dot blots were used to evaluate the binding of antibodies to peptides or fragments of RAGE in a non-denatured form. […] Peptides were ordered and synthesized by Biotrend according to standard methods (solid phases peptide synthesis on AMS 222 synthesizer using Fmoc/tBu-chemistry) containing a free carboxyl terminus. Peptides were HPLC-purified and analysis of every peptide for purity was done using RP-HPLC. […] The identities of peptides were verified by mass spectrometry.
(§3) Dots consisting of different amount of protein/peptide (30 ng, 10 ng, 3 ng, 1 ng, 0.3 ng, 0.1 ng, 0.03 ng, and 0.01 ng) in a volume of 1 μl in 1×PBS were spotted onto a Hybond-ECL Nitrocellulose Membrane (Amersham, RPN68D) in duplicates. Membranes were dried and unspecific binding was blocked by shaking the membranes for 1 hour at room temperature with Western Blocking reagent (Roche, no. 1921673). Blocking reagent was discarded and the membranes were incubated with antibodies in a concentration of 7.14 nM (shaking, 1 hour at room temperature). […] Blots were washed 4 times (each time 5 minute incubation with shaking at room temperature) with 1×PBS. Blots were then incubated with goat anti mouse IgG AP secondary antibody (Sigma no. A-7434) diluted 1:2000 in Western Blocking Reagent (Roche, no. 192173). Incubation for 1 hour was as before (shaking, room temperature). The filters were washed 4 times (5 minutes each) in 1×PBS. Development of signals was according to manufacturers instructions with NBT/BCIP substrate solution (Roche, no. 1697471). Color development was stopped after 10 minutes with bi-distilled water.

[6] = target: T5, RAGE-derived peptide 7 (human); assay: dot blot, non-denatured peptide on nitrocellulose
T5 construct: Synthetic peptide with a free carboxyl terminus
T5 peptide: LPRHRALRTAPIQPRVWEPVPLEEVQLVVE
Description: as §2, §3

[7] = target: T6, RAGE-derived peptide 3 (human); assay: dot blot, non-denatured peptide on nitrocellulose
T6 construct: Synthetic peptide with a free carboxyl terminus
T6 peptide: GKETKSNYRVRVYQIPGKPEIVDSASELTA
Description: as §2, §3

[8] = target: T7, E. coli RAGE Construct #1, OmpA-[RAGE (23-340)]-6His (human, UniProt Q15109 23-340); assay: ELISA, fragment coated at 1 µg/ml
T7 construct: Not glycosylated (E. coli); also called RAGE protein #1; E. coli-expressed sRAGE
T7 sequence (Q15109 other isoform, or with tags, fused parts or gaps limits assumed): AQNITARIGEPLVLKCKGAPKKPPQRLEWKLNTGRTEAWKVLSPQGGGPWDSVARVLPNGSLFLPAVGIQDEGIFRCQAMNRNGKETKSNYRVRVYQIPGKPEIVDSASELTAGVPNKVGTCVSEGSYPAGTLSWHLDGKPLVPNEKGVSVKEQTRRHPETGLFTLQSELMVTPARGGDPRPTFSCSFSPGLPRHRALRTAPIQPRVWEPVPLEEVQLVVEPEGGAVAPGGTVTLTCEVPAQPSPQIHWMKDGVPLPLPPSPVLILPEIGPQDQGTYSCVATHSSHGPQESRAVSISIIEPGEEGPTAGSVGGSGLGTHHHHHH
Experimental: as §1, with “Following this incubation, the solution was removed from the wells and each well was washed three times with 200 ul PBST. To each well 100 μL of HRPO substrate [3,3′,5′,5′-Tetramethylbenzidine Liquid Substrate (TMB), Supersensitive for ELISA, Sigma Catalog #T4444] solution was added and the plate incubated at room temperature for 10 minutes.” left out

T1 sequence (Q15109 other isoform, or with tags, fused parts or gaps limits assumed): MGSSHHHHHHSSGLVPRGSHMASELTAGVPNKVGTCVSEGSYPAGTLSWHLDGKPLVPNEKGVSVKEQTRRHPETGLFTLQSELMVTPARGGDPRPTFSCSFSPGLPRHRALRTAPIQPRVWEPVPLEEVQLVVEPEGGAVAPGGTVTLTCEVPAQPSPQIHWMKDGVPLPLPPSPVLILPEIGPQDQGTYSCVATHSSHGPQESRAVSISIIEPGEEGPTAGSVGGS

EC50 (read off the curve) [1]: ~0.5 nM
EC50 (read off the curve) [2]: ~0.03 nM
binding result [3]: no binding
Kd [4]: 2.2 nM
binding result [5]: no binding
binding result [6]: no binding
binding result [7]: no binding
B1: anti-human RAGE monoclonal antibody 4E5 (murine, hybridoma-derived) (antibody, V domains shown)
VH: QVQLQQSGAELVRPGTSVKVSCKASGYAFNNYLIEWIKQRPGQGLEWIGVINPGSGGTNHNEKFKVKATLTADKSSSTAYIQLSSLTSDDSAVYFCARSAGTARARFAYWGQGTLVTVSA
VL: DIQMTQSPSSLSASLGERVSLTCRASQDIGSSLNWLQQEPDGTIKRLIYATSSLDSGVPKRFSGSRSGSDYSLTISSLESEDFVDYYCLQYASFPFTFGSGTKLEIKR
notes: also called mAb4E5; ML37-4E5

binding result [1]: no binding
binding result [2]: no binding
binding result [8]: no binding
Kd [4]: 0.11 nM
binding result [5]: no binding
binding result [6]: no binding
binding result [7]: no binding
B2: anti-human RAGE monoclonal antibody 7F9 (murine, hybridoma-derived) (antibody, V domains shown)
VH: EEKLEESGGGLVQLGGSMKISCVASGFTLSNYWMDWVRQSPEKGLEWIAEIRLKSNYYSTHYAESVKGRFSISRDDSKGSVSLQMDNLTAEDTGIYFCARNAYWYFDVWGTGTTVTVSS
VL: DIVMTQSHKFMSTSVGDRVSATCKASQDVGTSVAWYQQKLGQSPKLLIYWTSTRHTGVPDRFTGSGSGTDFTLTISNVQSEDLADYFCQQYNNYPLTFGDGTKLELKR
notes: also called mAb7F9; MAb 7F9

EC50 (read off the curve) [1]: ~0.6 nM
EC50 (read off the curve) [2]: ~0.04 nM
Kd [4]: 0.29 nM
binding result [5]: no binding
binding result [6]: no binding
binding result [7]: no binding
B3: anti-human RAGE monoclonal antibody 11E6 (murine, hybridoma-derived) (antibody, V domains shown)
VH: QIQLVQSGPELKKPGETVKISCKASGYTFTNFGMNWVKQAPGKGLKWMGYINTNTGESIYSEEFKGRFAFSLETSASTAYLQINNLKNEDTATYFCARSRMVTAYGMDYWGQGTSVTVSS
VL: DIVMTQSQKFMSTSVGDRVSITCKASQNVGTAVAWYQQRPGQSPKLLIFSASNRYTGVPDRFTGSGSGTDFTLTLSNMQPEDLADYFCQQYSSYPLTFGVGTKLELKR
notes: also called mAb11E6; ML37-11E6
